According to patent US20220186206, “NOVEL Cas ENZYME AND SYSTEM, AND USE THEREOF” (SHANDONG SHUNFENG BIOTECHNOLOGY CO., LTD., published 2022):

T1: UkCpf1 (in cells) (uncultivated microorganism (metagenome))
T1 chain: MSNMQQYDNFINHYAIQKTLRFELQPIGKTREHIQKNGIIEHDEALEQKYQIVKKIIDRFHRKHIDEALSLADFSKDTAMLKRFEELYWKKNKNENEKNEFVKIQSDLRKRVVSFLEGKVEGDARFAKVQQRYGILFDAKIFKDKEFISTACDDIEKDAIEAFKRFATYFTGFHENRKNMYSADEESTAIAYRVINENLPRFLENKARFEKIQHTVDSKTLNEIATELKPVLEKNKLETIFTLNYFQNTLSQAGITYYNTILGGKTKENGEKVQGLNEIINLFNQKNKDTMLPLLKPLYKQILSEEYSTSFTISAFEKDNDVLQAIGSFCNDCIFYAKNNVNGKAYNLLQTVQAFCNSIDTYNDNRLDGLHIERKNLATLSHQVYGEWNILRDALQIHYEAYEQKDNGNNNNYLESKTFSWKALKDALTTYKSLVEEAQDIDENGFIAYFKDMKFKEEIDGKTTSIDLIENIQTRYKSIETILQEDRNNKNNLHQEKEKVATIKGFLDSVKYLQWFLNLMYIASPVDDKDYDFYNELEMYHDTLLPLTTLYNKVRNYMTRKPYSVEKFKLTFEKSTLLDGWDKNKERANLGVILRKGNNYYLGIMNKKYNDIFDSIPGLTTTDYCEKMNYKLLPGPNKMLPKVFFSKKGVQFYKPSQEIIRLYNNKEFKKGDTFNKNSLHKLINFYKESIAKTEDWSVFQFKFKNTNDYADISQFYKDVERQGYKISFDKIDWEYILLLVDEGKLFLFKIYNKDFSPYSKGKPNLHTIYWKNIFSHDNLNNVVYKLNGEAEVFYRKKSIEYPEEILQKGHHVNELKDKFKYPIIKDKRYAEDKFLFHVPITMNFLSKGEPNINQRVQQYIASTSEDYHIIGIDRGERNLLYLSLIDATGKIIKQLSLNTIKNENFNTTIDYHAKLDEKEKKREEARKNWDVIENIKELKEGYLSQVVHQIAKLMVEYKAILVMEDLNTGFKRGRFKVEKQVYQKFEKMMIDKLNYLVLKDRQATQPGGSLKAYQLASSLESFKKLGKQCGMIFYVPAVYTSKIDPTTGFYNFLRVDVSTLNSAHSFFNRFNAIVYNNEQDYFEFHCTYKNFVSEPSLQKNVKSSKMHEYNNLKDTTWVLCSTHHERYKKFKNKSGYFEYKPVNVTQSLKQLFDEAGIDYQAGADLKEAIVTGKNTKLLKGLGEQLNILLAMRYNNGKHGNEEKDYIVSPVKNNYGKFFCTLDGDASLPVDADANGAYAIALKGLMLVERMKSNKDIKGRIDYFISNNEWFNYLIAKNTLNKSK


Target: T1, UkCpf1 (in cells)
Experiment: cell_activity; rice protoplast; PAM 5'-YYV

Binder | activity [% indel]
gRNA gTGW6-2 (UkCpf1 DR + spacer) ; TGW6-2 target (ssRNA ; dsDNA) RNA: AUUUCUACUAUUGUAGAUUUUCACCGACAGCAGCAUGAACU DNA 1: TTTCACCGACAGCAGCATGAACT DNA 2: AGTTCATGCTGCTGTCGGTGAAA | 0.39
gRNA gTGW6-5 (UkCpf1 DR + spacer) ; TGW6-5 target (ssRNA ; dsDNA) RNA: AUUUCUACUAUUGUAGAUCGUGUAGCUGGGGCUGUACGUGU DNA 1: CGTGTAGCTGGGGCTGTACGTGT DNA 2: ACACGTACAGCCCCAGCTACACG | 0.73
gRNA gTGW6-3 (UkCpf1 DR + spacer) ; TGW6-3 target (ssRNA ; dsDNA) RNA: AUUUCUACUAUUGUAGAUUUGACCUGCCAGGCUAUCCUGAU DNA 1: TTGACCTGCCAGGCTATCCTGAT DNA 2: ATCAGGATAGCCTGGCAGGTCAA | 0.57
